In publication PMC9482650, “Quantitative fragmentomics allow affinity mapping of interactomes” (Nature Communications, 2022):

T1: LNX2_3, Q8N448
T1 sequence (Q8N448 463-564, limits assumed, looked up): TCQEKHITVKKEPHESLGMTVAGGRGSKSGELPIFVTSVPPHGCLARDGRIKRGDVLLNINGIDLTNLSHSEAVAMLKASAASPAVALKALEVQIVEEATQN

T2: PARD3B_1, Q8TEW8
T2 sequence (Q8TEW8 196-299, limits assumed, looked up): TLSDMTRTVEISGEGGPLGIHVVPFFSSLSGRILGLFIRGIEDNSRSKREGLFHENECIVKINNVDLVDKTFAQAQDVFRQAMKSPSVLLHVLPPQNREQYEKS

T3: MPP7, Q5T2T1
T3 sequence (Q5T2T1 134-230, limits assumed, looked up): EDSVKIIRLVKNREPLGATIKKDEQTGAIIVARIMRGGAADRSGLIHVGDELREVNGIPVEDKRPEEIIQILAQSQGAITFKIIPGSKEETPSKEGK

T4: SYNJ2BP, P57105
T4 sequence (P57105 8-110, limits assumed, looked up): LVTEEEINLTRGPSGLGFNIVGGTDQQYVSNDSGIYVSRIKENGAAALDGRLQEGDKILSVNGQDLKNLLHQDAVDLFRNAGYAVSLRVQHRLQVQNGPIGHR

T5: ARHGEF11, O15085
T5 sequence (O15085 42-136, limits assumed, looked up): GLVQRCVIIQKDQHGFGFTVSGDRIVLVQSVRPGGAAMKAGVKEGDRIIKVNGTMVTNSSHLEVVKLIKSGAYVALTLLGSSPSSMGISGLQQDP

T6: SIPA1L2, Q9P2F8
T6 sequence (Q9P2F8 945-1036, limits assumed, looked up): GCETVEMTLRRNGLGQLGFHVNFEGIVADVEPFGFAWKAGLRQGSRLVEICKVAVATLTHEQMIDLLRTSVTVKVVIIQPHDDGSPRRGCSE

T7: SNTG2, Q9NY99
T7 sequence (Q9NY99 68-166, limits assumed, looked up): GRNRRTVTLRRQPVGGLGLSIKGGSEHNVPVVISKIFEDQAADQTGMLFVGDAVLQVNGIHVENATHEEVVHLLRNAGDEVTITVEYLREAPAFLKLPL

T8: SNTA1, Q13424
T8 sequence (Q13424 82-180, limits assumed, looked up): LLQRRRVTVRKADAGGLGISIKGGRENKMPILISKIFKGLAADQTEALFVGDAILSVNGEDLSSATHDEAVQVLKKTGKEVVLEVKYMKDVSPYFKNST

T9: HTRA3, P83110
T9 sequence (P83110 354-453, limits assumed, looked up): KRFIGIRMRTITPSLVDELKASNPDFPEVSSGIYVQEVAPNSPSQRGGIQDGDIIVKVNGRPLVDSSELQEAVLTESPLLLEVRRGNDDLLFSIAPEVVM

T10: HTRA4, P83105
T10 sequence (P83105 378-476, limits assumed, looked up): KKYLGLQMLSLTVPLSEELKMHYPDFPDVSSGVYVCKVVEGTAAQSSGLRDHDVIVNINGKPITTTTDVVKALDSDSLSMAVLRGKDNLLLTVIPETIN

T11: PCLO, Q9Y6V0
T11 sequence (Q9Y6V0 4491-4600, limits assumed, looked up): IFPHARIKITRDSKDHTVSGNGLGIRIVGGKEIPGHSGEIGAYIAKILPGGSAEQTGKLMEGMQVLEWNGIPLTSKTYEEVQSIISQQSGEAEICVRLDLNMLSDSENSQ

T12: SNTG1, Q9NSN8
T12 sequence (Q9NSN8 52-150, limits assumed, looked up): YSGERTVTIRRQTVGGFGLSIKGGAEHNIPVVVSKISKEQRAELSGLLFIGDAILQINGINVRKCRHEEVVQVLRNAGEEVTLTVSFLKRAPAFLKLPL


What was measured:
Experiment in all cases: holdup assay
Set-up in all cases: key: below the threshold = too weak to quantify, mostly under pKd 3.1 to 4
Conditions in all cases: plain residues with an end cap or a label only (N-terminal biotin on a linker: ado-ado)
LNX2_3, Q8N448 = molecular target: T1, LNX2_3, Q8N448
PARD3B_1, Q8TEW8 = molecular target: T2, PARD3B_1, Q8TEW8
DLG2_2, Q15700 = molecular target: DLG2_2, Q15700
Chain of DLG2_2, Q15700 (Q15700 189-283): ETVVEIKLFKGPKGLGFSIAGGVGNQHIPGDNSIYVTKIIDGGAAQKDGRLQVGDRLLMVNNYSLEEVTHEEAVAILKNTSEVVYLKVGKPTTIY

ARHGEF12, Q9NZN5-2 = molecular target: ARHGEF12, Q9NZN5-2
Chain of ARHGEF12, Q9NZN5-2 (Q9NZN5 other isoform, or with tags, fused parts or gaps): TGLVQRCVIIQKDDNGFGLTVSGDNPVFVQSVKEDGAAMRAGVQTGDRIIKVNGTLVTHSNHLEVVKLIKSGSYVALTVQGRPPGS

SCRIB_2, Q14160 = molecular target: SCRIB_2, Q14160
Chain of SCRIB_2, Q14160 (Q14160 857-960): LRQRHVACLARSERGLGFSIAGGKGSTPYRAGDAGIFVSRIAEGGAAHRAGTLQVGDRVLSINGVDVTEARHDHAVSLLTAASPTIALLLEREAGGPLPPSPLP

MPP7, Q5T2T1 = molecular target: T3, MPP7, Q5T2T1
SYNJ2BP, P57105 = molecular target: T4, SYNJ2BP, P57105
ARHGEF11, O15085 = molecular target: T5, ARHGEF11, O15085
Inadl_3, Q8NI35 = molecular target: Inadl_3, Q8NI35
Chain of Inadl_3, Q8NI35 (Q8NI35 359-469): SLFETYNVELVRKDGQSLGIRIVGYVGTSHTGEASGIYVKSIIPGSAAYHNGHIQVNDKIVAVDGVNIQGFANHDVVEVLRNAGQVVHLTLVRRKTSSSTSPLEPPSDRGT

SIPA1L2, Q9P2F8 = molecular target: T6, SIPA1L2, Q9P2F8
SNTG2, Q9NY99 = molecular target: T7, SNTG2, Q9NY99
IL16_1, Q14005 = molecular target: IL16_1, Q14005
Chain of IL16_1, Q14005 (Q14005 210-306): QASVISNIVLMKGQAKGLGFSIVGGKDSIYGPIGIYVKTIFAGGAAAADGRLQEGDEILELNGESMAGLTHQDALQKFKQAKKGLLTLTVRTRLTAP

MAGI2_5, Q86UL8 = molecular target: MAGI2_5, Q86UL8
Chain of MAGI2_5, Q86UL8 (Q86UL8 915-1017): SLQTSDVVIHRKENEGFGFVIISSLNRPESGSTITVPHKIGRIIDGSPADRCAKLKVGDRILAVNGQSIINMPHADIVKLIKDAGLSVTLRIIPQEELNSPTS

PARD3_3, Q8TEW0 = molecular target: PARD3_3, Q8TEW0
Chain of PARD3_3, Q8TEW0 (Q8TEW0 582-685): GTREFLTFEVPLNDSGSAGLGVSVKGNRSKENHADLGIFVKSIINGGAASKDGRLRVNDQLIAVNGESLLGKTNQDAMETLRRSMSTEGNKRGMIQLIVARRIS

SNTA1, Q13424 = molecular target: T8, SNTA1, Q13424
MAST1, Q9Y2H9 = molecular target: MAST1, Q9Y2H9
Chain of MAST1, Q9Y2H9 (Q9Y2H9 962-1065): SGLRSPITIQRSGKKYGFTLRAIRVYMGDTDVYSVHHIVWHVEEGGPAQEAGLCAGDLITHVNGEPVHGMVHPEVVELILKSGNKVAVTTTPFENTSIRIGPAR

Inadl_4, Q8NI35 = molecular target: Inadl_4, Q8NI35
Chain of Inadl_4, Q8NI35 (Q8NI35 547-651): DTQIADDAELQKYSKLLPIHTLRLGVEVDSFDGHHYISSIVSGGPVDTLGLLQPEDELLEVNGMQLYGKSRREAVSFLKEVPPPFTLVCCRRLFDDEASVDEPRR

TJP1_2, Q07157 = molecular target: TJP1_2, Q07157
Chain of TJP1_2, Q07157 (Q07157 181-274): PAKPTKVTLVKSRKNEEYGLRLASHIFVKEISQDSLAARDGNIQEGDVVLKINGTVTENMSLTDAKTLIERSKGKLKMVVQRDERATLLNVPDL

NHERF2_2, Q15599 = molecular target: NHERF2_2, Q15599
Chain of NHERF2_2, Q15599 (Q15599 142-238): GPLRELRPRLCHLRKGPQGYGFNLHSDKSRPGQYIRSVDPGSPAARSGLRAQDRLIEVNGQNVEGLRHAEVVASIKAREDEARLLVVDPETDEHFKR

HTRA3, P83110 = molecular target: T9, HTRA3, P83110
NOS1, P29475 = molecular target: NOS1, P29475
Chain of NOS1, P29475 (P29475 9-101): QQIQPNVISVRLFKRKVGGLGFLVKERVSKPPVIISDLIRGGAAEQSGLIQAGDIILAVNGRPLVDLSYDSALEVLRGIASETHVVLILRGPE

Inadl_9, Q8NI35 = molecular target: Inadl_9, Q8NI35
Chain of Inadl_9, Q8NI35 (Q8NI35 1530-1615): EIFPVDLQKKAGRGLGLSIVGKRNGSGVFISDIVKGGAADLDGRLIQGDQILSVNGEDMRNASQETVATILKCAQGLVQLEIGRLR

HTRA4, P83105 = molecular target: T10, HTRA4, P83105
NHERF4_1, Q86UT5-2 = molecular target: NHERF4_1, Q86UT5-2
Chain of NHERF4_1, Q86UT5-2 (Q86UT5 other isoform, or with tags, fused parts or gaps): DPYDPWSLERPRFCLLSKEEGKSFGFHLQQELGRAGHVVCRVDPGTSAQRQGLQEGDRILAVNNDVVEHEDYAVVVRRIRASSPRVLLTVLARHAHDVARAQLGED

PCLO, Q9Y6V0 = molecular target: T11, PCLO, Q9Y6V0
SNTG1, Q9NSN8 = molecular target: T12, SNTG1, Q9NSN8

pKd (LNX2_3, Q8N448) | pKd (PARD3B_1, Q8TEW8) | pKd (DLG2_2, Q15700) | pKd (ARHGEF12, Q9NZN5-2) | pKd (SCRIB_2, Q14160) | pKd (MPP7, Q5T2T1) | pKd (SYNJ2BP, P57105) | pKd (ARHGEF11, O15085) | pKd (Inadl_3, Q8NI35) | pKd (SIPA1L2, Q9P2F8) | pKd (SNTG2, Q9NY99) | pKd (IL16_1, Q14005) | pKd (MAGI2_5, Q86UL8) | pKd (PARD3_3, Q8TEW0) | pKd (SNTA1, Q13424) | pKd (MAST1, Q9Y2H9) | pKd (Inadl_4, Q8NI35) | pKd (TJP1_2, Q07157) | pKd (NHERF2_2, Q15599) | pKd (HTRA3, P83110) | also measured | Binder
below the threshold | below the threshold | 3.52 | 4.06 | 4.06 | below the threshold | 3.87 | below the threshold | below the threshold | below the threshold | below the threshold | below the threshold | below the threshold | below the threshold | 3.59 | 4.18 | below the threshold | below the threshold | 4.35 | below the threshold | pKd (NOS1, P29475): below the threshold; pKd (Inadl_9, Q8NI35): below the threshold; pKd (HTRA4, P83105): below the threshold; pKd (NHERF4_1, Q86UT5-2): 3.88; pKd (PCLO, Q9Y6V0): below the threshold; pKd (SNTG1, Q9NSN8): 4.12 | SSALYGESDL [ACTN2, P35609]
below the threshold | 3.75 | below the threshold | 3.56 | below the threshold | 4.05 | below the threshold | below the threshold | below the threshold | below the threshold | below the threshold | below the threshold | below the threshold | below the threshold | below the threshold | 4.33 | below the threshold | below the threshold | below the threshold | below the threshold | pKd (NOS1, P29475): 3.5; pKd (Inadl_9, Q8NI35): below the threshold; pKd (HTRA4, P83105): 3.95; pKd (NHERF4_1, Q86UT5-2): below the threshold; pKd (PCLO, Q9Y6V0): below the threshold; pKd (SNTG1, Q9NSN8): below the threshold | QPCFNKLFPL [LPXN, O60711]
below the threshold | 4.5 | below the threshold | 4.9 | below the threshold | below the threshold | below the threshold | 4.37 | below the threshold | below the threshold | 4.44 | below the threshold | 3.54 | 3.5 | 3.91 | 4.8 | below the threshold | below the threshold | 4.71 | below the threshold | pKd (NOS1, P29475): 3.57; pKd (Inadl_9, Q8NI35): below the threshold; pKd (HTRA4, P83105): below the threshold; pKd (NHERF4_1, Q86UT5-2): 4.38; pKd (PCLO, Q9Y6V0): below the threshold; pKd (SNTG1, Q9NSN8): below the threshold | GQEEQVTTRL [TRPC5, Q9UL62]
